# Test: soluble fraction after stress (log2 fold change); higher = more stays soluble; pooled small domains, quantitative proteomics
# Settings: stress: pH 4
# Outline: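 Pooled custom libraries of small protein domains were subjected to pH 4 and measured by high-throughput quantitative proteomics. The log2 fold change in soluble amount per domain is reported, higher values meaning more remained soluble. This is used as a measure of aggregation propensity.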
row,Sequence,soluble fraction (log2)
1,HMEMKVIPFNQMTRDQFDQLDRFLGRLAAAQAMGSLRLTKAQQNYFLNQVKQLDLYRKRILN,0.0144
2,HMFIKVEVPDLTGMTLTEVRKALEEKNLKMGDIRPAGQTSLVAKVINQSPQAKMVVDEYSEVSIQFEE,0.166
3,HMPEIFYRKIHRTDHDQIALDAEMIRLLIAIDEKKSLSQIAAEVQMEPMALKKNLGKLIQLGLVEPIK,-0.179
4,HMKIRIIKTASNAKAVQIVSYKNNKRIVLQHIGSAHTDETLNDLKILAEEWIKDYNHQLSIF,-0.671
5,HMTGREIDQLFSVVNDLKAKGVGMVFISHHLDEIARIADSVSVLRDGGFVAEVPASTPEKKLVTLMVGRDI,-0.369
6,HMSSAYLTVRGIDIDVIYKDIKNLHIAVYPPFGRVRVAAPSHLDDDQVRLAVIQRLTWIKRQRERLRST,-0.336
7,HMKNENSLLVSRLAEEKIINRAKLVLMEYLKLSEPQAHRYIEKQAMDLQISRAEVAARVLETYE,0.101
8,HMVSRKIENPYWANKEKQHIIAEFFYPDTNKRVTASIMNDGSNRDYEEILRGYSIEQIDANTNRRLEER,-0.811
9,HMEEVYVPDIRDKSISDAKKILSQMGLKYRIEGEGYDDSTVIKDQTPKPGALLAKDSVVIAYINE,-0.0728
10,HMLLLASTPAEQTIIQLLAEGWRDGDQLQQRSHLSAADFSTALTMLEVNGSIKPLGANHWALTH,-0.185
11,HMGIVAGGTQSIATLRAIDTTDAQLYPDKILINVEDAGLYRLDRQSTATDDGNQVIKPTVGVGRWLKMTS,0.0998
12,HMEQISDEDTLRKMVNEVLDNNQTQLEQYKSGKTNLIGFFVGQTLKKSAGKANPSIVNKLVNEEIYI,0.0623
13,HMDPLADLFSRIRNAQMRNKKVVTSPASKLRAGILEVLAKEGYIRGYAMTQHASGKNELDIELN,-0.0916
14,HMGTSFKITFYKDAFQVDDGPIRMLNDPANQKFVDEVSQGYAPKELIGQGGKAPEIDIIDKRSENAPT,-0.0971
15,HMNADAPWSPFSPGFTGPMNRPVIGLVTKADLANPQRISLVESWLVQAGAQKVFVTSALENTGVDEMFIFL,-0.288
16,HMSRFLEGILQRRAGGKNYFVPDDGSNPIFIADRNSAGAANGDRVRIAQFARRPRSGPEGEVVEILKRAK,0.153
17,HMAQIVNLPRKNVNGASYYYYEVQPKETIYSISRKLGVSGAEIQRHNPSVADGLKIGQVLYFPAEG,-0.0603
18,HMEDVRSLTGPEKAAIILLSLGEEHGQGVWRMFDDEEVKEVSQIMANLGTISASVVEKLLVEFVSQMST,-1.5
19,HMGVTGYPNPTREHITWDDARRIEVWNAYGVPVADLRFARGVLDVAGWPVGTYVARIDGGRSVRFVVI,-0.663
20,HMSENIQLQKEQLYQLIAQLPEQRQKIFRLHKIDNYSYQEISDFTGLSRKTIANHIYLAHQFILKKVKK,-0.28
21,HMSVPSLVGKTDSEAQSAIKSAGLKVGTVTYQYSDETEKGYVVSQSPYSGNKVNAGSTVNIVVSKGK,0.155
22,HMNALVAKYKQGVTEEQQQGQGIIIIKRVVVRDQEAWVYEKKIFDWGGVSYFRDKQRITASTFNQETAL,-1.12
23,HMNNLSEELNVTFPRTRDQLLNILHYVQHKYGYISKVSMQEIGNHIKMPVSEIYGTVTSYSEFKI,-0.965
24,HMVDYYEILGVSPDASRKDIENAWRKKMREAHPDMGGSEDKAQLLNEAHKVLSDESARAEYDASR,-0.0915
25,HMQDEAQLSMSNKYIFEGNSIVKDNFIEAEKKYRLGVSAKPNNAVGSYNLANAYYNSKLYDEAMLRLL,-0.179
26,HMDQNVSVPKLAGLQVEEANAILKSKGLHIEIIDSIYQKDAVPGAIIEQVPEENSKVKKGRAIYVSVYAK,0.0139

row,Sequence,soluble fraction (log2)
1,HMVAGHLQTKKGYYYIVLNMRTDTGARKTKWIATGIPEGGKKNLKQAEELLAKTRYTYEDMVI,0.0939
2,HMGNNSIDIKDVIYNLVEISQLQAFDIVKHFKTWENLVNKPDELDTVIDGDSDIVDRIKYKIKSLS,-0.568
3,HMVKLSVGDIVQFAGGPHYVSSSAAKPASSPTAGPAKVTMIYQGAKHPYHIVHTTSASTVWGWVDADKVVK,-0.208
4,HMTIFGWQTDETGKWYRNADGTFFEAGWKEIDGAKYYFDENGYVKTGWLELDGKDYYFDEEGRYDSSKVR,-1.69
5,HMSEEKLVFSIPDDIETMRIDKAIALETHLSRAQIAELFKENKILLNSKNSKRSEKVKPGDKISLEFIPKI,-0.0612
6,HMVDLANIDPIASSIKLNGAEADASFNTLEDRRVSVSGSFEENKNYTMEYTFKDYAGGSVTGTLDFKTLA,0.129
7,HMDGVYLKSLKQTEQHIHWSGYAQSNAWVSTLMRNLDASPWFESPLLIEIKAATINNSRSNEFDLNVRL,0.102
8,HMPAELGVVVRNANLRSGPGTKYAIVGSAPAGTTVRIAGTNKAGDWYHLSSGRWIAAFLVDRN,0.34
9,HMLSNKIEQLRKEKGYTFAKLSELSGISTGRLSDLATGKRNNPTMDTLIKLADALDVTLDELVGR,-0.328
10,HMPERMLEPLLNGNEIMKVTQLQPGPKVGLIRDALLQAQISGDVTDTESAKAFVQDYAKRNI,0.386
11,HMNMIGDVIRNLRTVSSMTQTELGQRMGVIKQTISNWEKNISTPSIDAIVKLSSIFNVPTDYLL,-0.178
12,HMSRKERERSQHRRDILAAGEKIFAQKGYFNATIEEIAREAEFSVGTIYNFFSNKETLYQEIIRSI,-0.43
13,HMVVYDAELLLNINPGMSYEEVKEMLGDPGMIIAGNDAENSVYRWSTGGISFMGRFENGALIRKSIISP,-0.916
14,HMEDKKQVLYELITDKSYRPLRFKELAVLLMVPKALRGELKQTLDELIKEGKITVDSSSRYRAA,0.276
15,HMDETYRRQLEDLAREHGAEYLHGILREVDPASAEAIHANNIKRVIRALEFYHLSGKKISEHNETERQ,-0.00358
16,HMKILKQLEAIIEKEGLNESAKQFYLREISELDKEKQQEIINLVDKMEQAGFKNNLASAFSEVTEDIPQF,-0.518
17,HMFTDAEIKQFAAAAVEVTKIQQDSTISAADKQPKMLAVVQSSGLPPEKFNQIGQAAAADPALQQRIQA,0.159
18,HMDEAEELYQAVQALKPKYREVILLHYYQGLRVGEIAAILRAPQSTVSIRLRRARQMLNRMLG,-0.0788
19,HMSKQVDVVIYILENTKAADNTYIGTYRKTADGAGVSLDTATKVMRKLQENNFIKKVQNGVYQISPLIMM,-0.519
20,HMNSYKGELLVDDKNIRLDLYLFNQFNFFSRTKIKNYILKGNVLVNNNKTSPSYILKGSEKIYYDFSVS,-0.251
21,HMRTKEGLASQLEKIPGIGPVKRKALLKKFGSIDAIAAASKEELMLTDGITSSLADAIRDYF,0.391
22,HMIAVLKQGVSKQQVENLITWFRSRGLDVHISEGKFQTIIGLIGDTSKVDIDLLNGLEIIESVKRI,-0.832
23,HMENSLLSESLAKIYIKTHRYERAYEILSRLSLAVPEKNAYFADQLRFLRKVMLAESFRKQHS,0.22
24,HMSSEQRSVLFPNLAETDKVAVIEALMAAGVNARVDSASGRVTVPSGDYYNSRAILAAQGLPTS,-0.175
25,HMESNDSNIEDDFYEGLKSMRKGDLKMSVVFFTRVIEKKPTFAEAWNRRATVYYMLGKFDKSMFDINETLK,-0.17
26,HMQEDKSKYLFQRGTAITVLRPAGIVRIGKERVDAVSNGSYIDRGVAVRVIEVEGTRVVVEPVPE,-0.151

row,Sequence,soluble fraction (log2)
1,HMKFTPPTLEQIKNEMLLKTDEYNADIQSDRFFTYYDSNGWMVGKNKMKKFLVSLVAVFAATSA,-0.374
2,HMIMDQTILRKQRELTDRLNRYRNEYYNHNKPSVSDEVYDRLFDELQSLEKETGVQMANSPTTTVG,0.0972
3,HMGPEAFPVPYVVDIELDRAIYVIEQSGFIVGQKLEANDNNVPRGFVISQNPPAGTKLGPESIVDLVVSS,-0.281
4,HMGSLVVVPNLVGQNYDEVKLSTKYSDFEIVQKNTEYSEAPAGQIIKQDPEAGTKVKKHSTINVTVSK,-0.287
5,HMLKPVVLLGARGLTDAVEKEVERALDEHGLIKIHVPSDDREERDEIYTTLADKLNAARIQAIGKMLVLW,-0.00783
6,HMTISAQAITPRLEVIKNFVLMEEWDAAQTQLEKLRSFTEIWSLDPLFSAMKKKDGQKISDWITGFIKDNM,-1.69
7,HMSPFAHHLHELRMRHGIRQNELAELIGYDQTYISALEVGLKGPPTPEFVDKLVEGLALSRTEEAALRSAA,-0.562
8,HMDLSPEQAELAAIRGELGIKIDDYALALNIPRDRLTSYLYGRANVPAEVLISARELRYASSA,-0.128
9,HMVQMKIRAYELEPNDFFIKQNMTYRVMRIQNGMIYAKHLLNSTPITFGAKSMEFVLWTGKYS,-1.05
10,HMFMNFAEHLMALRKQRGWSQEELGSQIGVTRQTVSKWEMGQSTPELEKLVELSRLFGMSIDQLVGL,-0.00635
11,HMRQYPSGVFKEEGVKAVYIHAGTPFLVIAAQYKIPLARLFEWNNLLPSTEARISQVIYLERPG,0.238
12,HMLAVEKIEFVGNERIAAADLESALSALYDRPMTTISDDEIAKLLSGFSLIETFTSQAEPPHTLRVNIRE,-0.452
13,HMQSHGSRIWTDITGNFTREASFIELAEGKVTLQLTDGRRTIISFEILSKKDQEYVLDIGDS,-1.95
14,HMRRVRRTRRLLQDGLLGLMQHKAVADISVKELAEAADVARATVYVHFKDPADVLHQLEQGLY,-0.151
15,HMRPIWVQLADDFRHRIVSGQWPPGSKIPSVRELAAETGVNPNTVQRALGALDGEGLTATERTAGRFVTT,-0.0115
16,HMFWEGYLAARREQFLKDQQVLLGNEFRSNPDFWLEVASKEWAVVEERLSTGADVSEEVQETMGLDF,-1.5
17,HMIILDASASRAIGNGTIEETKWDFGNGESSTNRGGPIVERQIYANQAAYILKLSMKTNDGQLFTKEIQLL,-0.0529
18,HMQFHQDNYALEFIRDLQPVDGAIILSRFKQFDLVELEKAKKIKFSDEHMAWTLYDYDIKKIN,-1.82
19,HMATKEQIKRIYGLGAGLGIVGKDKDDMLHELIFSITGKDSVKQLDDSEFKAVQAELINRMKLA,-0.111
20,HMNIVINVDTPTFEQMKATYQAPGTLPAGASFHAKLKGVTVTGYTKSHKVMFQGALANQEAARWQ,≥ 0.43
21,HMITERVPVPDLTGMPLMEAIKTLNSSKLQYQVVGSVIEGDENRIIDQTPKPDIMVSEKSIVLLYLETYRG,-0.338
22,HMISENFVEAKILLTEDNRPKSLEILKDIIRQHDKVYSPLSLFLILDEDLEENKEIILEYFDLVLS,-1.38
23,HMNVDALVGMPARVTRAFVQGAGEVKLDNGETWTARLSAGVTDAEASVGQTVSVIAVRGAAVEVAPE,0.158
24,HMTLSDIGHAVRTRRTELGLSQVQLARLSGLSRQTLVGLENGTLNDLGINRVAQLLAVLGLDAP,-0.203
